In PMC11267573, “A Robust α-L-Fucosidase from Prevotella nigrescens for Glycoengineering Therapeutic Antibodies” (ACS Chemical Biology, 2024):

T1: MBP-AlfC (Lacticaseibacillus paracasei, UniProt A0A422MHI3)
T1 construct: gene BN194_28780; pMAL-c4X, E. coli; codon-optimized synthetic gene
T1 sequence (A0A422MHI3 1-344): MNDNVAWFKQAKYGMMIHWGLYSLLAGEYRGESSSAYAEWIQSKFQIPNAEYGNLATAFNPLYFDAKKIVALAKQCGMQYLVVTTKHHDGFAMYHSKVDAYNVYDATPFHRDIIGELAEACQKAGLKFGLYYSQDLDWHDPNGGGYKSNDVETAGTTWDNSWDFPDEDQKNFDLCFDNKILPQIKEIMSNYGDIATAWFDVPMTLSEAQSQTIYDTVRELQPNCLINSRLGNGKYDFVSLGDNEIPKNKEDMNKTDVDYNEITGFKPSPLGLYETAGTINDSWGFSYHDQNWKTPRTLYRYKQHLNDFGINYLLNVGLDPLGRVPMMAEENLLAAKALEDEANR


Experiments:
Experiment in all cases: p-nitrophenol release, initial-rate kinetics
MBP-PnfucA = target: T2, MBP-PnfucA (Prevotella nigrescens, UniProt V8CPU0); format: biochemical; conditions: assay details in supplement; MBP fusion
T2 construct: gene HMPREF1173_00896; pMAL-c4X, E. coli; poor purity
From the text: p-nitrophenol release, initial-rate kinetics on MBP-PnfucA

MBP-AlfC = target: T1, MBP-AlfC; format: biochemical; conditions: assay details in supplement; MBP fusion
From the text: p-nitrophenol release, initial-rate kinetics on MBP-AlfC

[1] = substrate: C[C@@H]1O[C@@H](Oc2ccc([N+](=O)[O-])cc2)[C@@H](O)[C@H](O)[C@@H]1O; format: biochemical, Prevotella nigrescens; conditions: assay details in supplement
From the text: p-nitrophenol release, initial-rate kinetics on Δ20PnfucA

| Molecule | Km (MBP-PnfucA) | Km (MBP-AlfC) | Km [1] | kcat [1] | kcat/Km [1] |
| --- | --- | --- | --- | --- | --- |
| C[C@@H]1O[C@@H](Oc2ccc([N+](=O)[O-])cc2)[C@@H](O)[C@H](O)[C@@H]1O [pNP-Fuc] | 250 ± 20 µM | 620 ± 60 µM |  |  |  |
| Δ20PnfucA (Prevotella nigrescens CC14M) (protein, 20 N-terminal residues (signal peptide) removed; apparent mass ~52 kDa; codon-optimized synthetic gene) QTNSQQQESNNRATTTESVPQKYIPTAENLAARKRFEGFRFGIFLHWGIYSTFAQGEWYLNNKINKDEYAKAASAFYPSYFDADAWISAIKASGAKYITFTSRHHDSFSMFKTKESNYNIVDATPFKRDVLKELANACHKQNIDLHIYYSILDWIREDYPIGRTGLYTGRKLKPNYGTYFNFMKGQVSELLHNYGKVGAIWLDGYWDHDSDSIPFDWRMEEFYRYIHSIQPACLIGNNHHIAPIDGEDFQMFERDLPGENKAGLSGQAISRLPLEACQTMNGMWGYKVSDINYKSTSQLIELLVRSAAKGSNLLLNIGPQPNGELPALALDRLQGIGKWMQQYGETIYETMAGDVAEADWGVSTSKGKKTYLHVLEQDAKTISCALSVKPKRVIDFASRQPLSFHYDKKTKTLTTHIGSHRNVVDYIIEIEK |  |  | 560 ± 50 µM | 66.5 ± 2 s⁻¹ | 119000 M⁻¹ s⁻¹ |
